In patent publication US11434268B2, “Vascular endothelial growth factor antagonists” (The United States of America, as represented by the …, priority 2012, dated 2022):

Legend:
[1] = test system: 293/KDR cells; experiment: KDR-driven tumorigenicity of 293/KDR transfectants implanted subcutaneously in mice; format: in vivo, SCID/Beige mice; conditions: 3×10^6 transfected 293/KDR cells per animal, subcutaneous, FIG. 5D
Description: Additional control groups received the empty vector 293/KDR cells (3×10^6 per animal) or the empty vector cells combined with VEGF WT transfectants at 1.5×10^6 cells each. The latter group indicated the growth rate of tumors arising from 1.5×10^6 VEGF WT transfectants in the presence of “neutral” cells providing the same initial mass; a growth rate below this threshold in the group implanted with VEGF WT+VEGF 3S transfectants could be attributed to inhibition of VEGF WT-driven tumor growth by VEGF165 3S.
All experiments involving animals were performed in accordance with NIH Guidelines for Care and Use of Laboratory Animals using approved protocols. 293/KDR cells stably transfected with VEGF WT or 3S expression plasmids, or empty vector, were injected subcutaneously into SCID/Beige mice (Taconic, Inc.; 3×10^6 cells per animal total as indicated in the text, 5 mice/group) and tumor volumes were measured at regular intervals as described previously (Giubellino et al., 2007). Statistical analysis and curve fitting for all animal studies were performed using GraphPad Prism software version 5.0.
To test whether 3S VEGF could antagonize KDR-driven tumorigenicity in mice, groups of animals (n=5) were implanted subcutaneously with WT VEFG transfected 293/KDR cells (3×10^6 per animal), with the same number of 3S VEGF transfected cells, or with a suspension containing half the number of cells of each type. Additional control groups received the empty vector 293/KDR cells (3×10^6 per animal) or the empty vector cells combined with WT VEGF transfectants at 1.5×10^6 cells each. The latter group indicted the growth rate of tumors arising from 1.5×10^6 WT VEGF transfectants in the presence of “neutral” cells providing the same initial mass; a growth rate below this threshold in the group implanted with WT VEGF+3S VEGF transfectants could be attributed to inhibition by 3S VEGF. […]

[2] = Heparin-Sepharose mediated clustering (covalent affinity crosslinking); format: binding; conditions: conditioned media with Heparin Sepharose, BS3 crosslinking; FIG. 8
Method: These findings further support the mechanism of action of VEGF 3S as antagonism of HS binding to the VEGF/VEGFR complex leading to instability of ligand/receptor/HS complexes and consequent disruption of downstream signaling.
Covalent Affinity Crosslinking: Assays. […] Heparin Sepharose beads were used as both a source of heparin and to efficiently capture heparin-clustered VEGF from the conditioned media after crosslinking. Samples were then incubated with or without BS3 at room temperature for 1 h. After pelleting the beads by brief centrifugation, samples were obtained from the supernatants for SDS-PAGE and immunoblot analysis. The beads were then washed by five centrifugation/resuspension cycles in PBS, and bound proteins were eluted with boiling SDS-PAGE sample buffer. Supernatant and bead-captured samples were then resolved by SDS-PAGE under reducing conditions, transferred to PVDF and immunodetected with anti-VEGF antibody.

[3] = test system: 293/KDR cells; experiment: Soft agar colony formation (anchorage independent growth) of 293/KDR cells; format: cell-based; conditions: for soft agar colony formation by transfectants: 293/KDR cells stably transfected with expression plasmid, FIG. 4F; for inhibition of soft agar colony formation of 293/KDR cells stably transfected with VEGF165 WT: 3S protein at 0.06, 0.15 and 0.6 nM, pazopanib every other day at 0.3 and 3.0 nM over two weeks, FIG. 5C
Method: (§1) For proliferation assays, 293/KDR derived cell lines were seeded in 6-well culture plates in quadruplicate. Cell number per well was measured at regular intervals removal of adherent cells and counting in a Cellometer Automatic Cell Counter (Nexcelom Bioscience). Assays for colony formation in soft agar were performed as described (Castagnino et al., 2000).
SoftAgar Colony Formation Assays for colony formation in soft agar (representative of anchorage independent growth) were performed and quantitated as described previously. Briefly, U87 MG cells and U87 MG cells transfected with a plasmid encoding NK1 60/62/73 were suspended in 0.5% Seaplaque agarose (1×10^5 cells) in growth medium in duplicate 60 mm dishes. Cell colonies were visualized after staining with p-iodotetrazolium violet by brightfield microscopy using an Olympus inverted microscope. Digital images were acquired and recorded using a CCD video camera and IP Lab software.

[4] = test system: 293/KDR cells; experiment: Proliferation of stably transfected 293/KDR cell lines in culture; format: cell-based; conditions: 293/KDR stable transfectants, days 3-5; p<0.001; FIG. 4E
Method: (§2) For proliferation assays, 293/KDR derived cell lines (5×10^4 cellsper well) were seeded in 6-well culture plates in quadruplicate. Cell number per well was measured after 2, 3, 4, and 5 days of growth by removing cells with trypsin, collecting via centrifugation and counting suspended cells in triplicate in a Cellometer Automatic Cell Counter (Nexcelom Bioscience, Lawrence, Mass.). Purified recombinant VEGF-A protein used as an external standard quantitation as VEGF mass per mass total extracted cell protein. KDR autophosphorylation in cell lysates was measured similarly; cultured cells were serum-deprived for 48 h, where noted cells were stimulated for 20 min with WT or 3S VEGF-A alone or in combination at the indicated concentrations, then extracted with ice cold buffer containing non-ionic detergent, protease and phosphatase inhibitors. Cleared extracts were applied to assay plates and processing per the manufacturer's instructions.
as §1

[5] = test system: Akt activation in SCC-25 cells, which express VEGFR1, R2 and R3; experiment: VEGF-A- or VEGF-D-induced Akt activation in SCC-25 cells; format: cell-based; conditions: FIG. 9C
Method: SCC-25 cells express all three VEGFRs.
(§3) Thus the pattern of VEGF 3S inhibition followed the pattern of VEGF-A binding to VEGFR1 and R2, but not homodimers of VEGFR3, as anticipated. […] VEGF 3s blocked Akt activation by VEGF-A (dark circles) or P1GF (squares). […] SCC-25 cells express all three VEGFRs.
(§4) Immunoassays: KDR and VEGF content in cell lysates, tissue extracts and conditioned media was determined using 2-site electrochemiluminescent immunoassays developed for use with the Meso Scale Discovery (MSD) SectorImager 2400 plate reader (Gaithersburg, Md.). KDR activation in cell lysates or tumor tissue extracts included parallel detection with anti-receptor antibodies and specific anti-phospho-receptor antibodies or 4G10 (Millipore). Cell lysates were prepared similarly for analysis of activated (phospho-) Akt, and total Akt using immunoassays from MSD. All measurements were made on triplicate samples. GraphPad Prism software version 5.0 was used for all statistical analyses: protein content values determined by 2-site immunoassay were interpolated from standard curves by nonlinear regression analysis (4 parameter logistic equation); saturation and competitive binding curves were fit after determination of specific binding and assuming a one site binding model.

[6] = target: T1, KDR (Homo sapiens, UniProt P35968); experiment: Basal KDR tyrosyl phosphorylation in stably transfected 293/KDR cells; format: cell-based; conditions: 293/KDR stable transfectants after 24 h serum deprivation; FIG. 4D
T1 construct: host or cells: HEK293 (293/KDR)
T1 sequence (P35968 20-1356): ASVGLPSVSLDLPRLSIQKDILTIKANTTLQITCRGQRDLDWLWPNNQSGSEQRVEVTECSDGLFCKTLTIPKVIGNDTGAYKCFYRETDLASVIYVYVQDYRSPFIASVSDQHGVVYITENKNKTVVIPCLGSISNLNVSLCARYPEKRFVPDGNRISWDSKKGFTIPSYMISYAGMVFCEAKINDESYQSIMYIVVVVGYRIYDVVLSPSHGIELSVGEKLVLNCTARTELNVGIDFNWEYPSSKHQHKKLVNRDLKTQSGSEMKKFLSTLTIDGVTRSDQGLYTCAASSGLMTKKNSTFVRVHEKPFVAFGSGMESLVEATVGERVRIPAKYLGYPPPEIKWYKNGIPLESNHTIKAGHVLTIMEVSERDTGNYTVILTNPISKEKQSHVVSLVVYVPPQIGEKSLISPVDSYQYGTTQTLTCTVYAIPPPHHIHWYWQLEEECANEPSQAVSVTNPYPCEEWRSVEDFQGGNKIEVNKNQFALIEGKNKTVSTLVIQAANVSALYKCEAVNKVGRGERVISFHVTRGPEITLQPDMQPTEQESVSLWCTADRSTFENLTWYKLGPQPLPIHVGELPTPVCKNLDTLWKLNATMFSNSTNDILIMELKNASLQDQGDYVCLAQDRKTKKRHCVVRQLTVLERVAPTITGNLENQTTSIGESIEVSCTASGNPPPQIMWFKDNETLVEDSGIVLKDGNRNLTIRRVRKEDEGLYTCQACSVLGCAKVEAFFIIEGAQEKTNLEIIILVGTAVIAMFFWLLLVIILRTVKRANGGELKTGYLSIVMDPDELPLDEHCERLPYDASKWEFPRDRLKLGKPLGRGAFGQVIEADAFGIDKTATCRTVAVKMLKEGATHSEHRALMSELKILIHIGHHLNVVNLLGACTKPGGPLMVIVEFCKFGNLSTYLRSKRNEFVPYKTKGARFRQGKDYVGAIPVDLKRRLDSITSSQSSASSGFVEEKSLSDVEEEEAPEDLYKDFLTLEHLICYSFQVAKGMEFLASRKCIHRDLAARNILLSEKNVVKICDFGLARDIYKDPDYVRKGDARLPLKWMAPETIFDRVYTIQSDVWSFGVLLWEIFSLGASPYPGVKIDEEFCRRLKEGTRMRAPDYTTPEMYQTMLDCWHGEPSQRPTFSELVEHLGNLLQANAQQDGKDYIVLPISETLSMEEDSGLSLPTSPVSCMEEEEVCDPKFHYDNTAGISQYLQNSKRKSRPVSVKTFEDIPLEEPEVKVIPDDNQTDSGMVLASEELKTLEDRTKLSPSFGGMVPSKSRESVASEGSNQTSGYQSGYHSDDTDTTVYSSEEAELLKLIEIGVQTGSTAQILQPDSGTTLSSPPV
Method: KDR autophosphorylation in cell lysates or tumor tissue extracts was measured similarly but included parallel detection with anti-receptor antibodies and specific anti-phospho-receptor antibodies or 4G10 (Millipore). […]
KDR tyrosyl phosphorylation in each cell line was measured after 24 h of serum deprivation (FIG. 4D). […]
Immunoassays: KDR and VEGF content in cell lysates, tissue extracts and conditioned media was determined using 2-site electrochemiluminescent immunoassays developed for use with the Meso Scale Discovery (MSD) SectorImager 2400 plate reader (Gaithersburg, Md.). […] GraphPad Prism software version 5.0 was used for all statistical analyses: protein content values determined by 2-site immunoassay were interpolated from standard curves by nonlinear regression analysis (4 parameter logistic equation); saturation and competitive binding curves were fit after determination of specific binding and assuming a one site binding model.

[7] = target: T2, NRP1 (Homo sapiens, UniProt O14786); experiment: Covalent affinity crosslinking analysis of NRP1 binding; conditions: NRP1-Fc, BS3 crosslinking, conditioned media; FIG. 10A
T2 construct: purchased Sino Biologics
T2 sequence (O14786 22-644 isoform O14786-2 limits assumed): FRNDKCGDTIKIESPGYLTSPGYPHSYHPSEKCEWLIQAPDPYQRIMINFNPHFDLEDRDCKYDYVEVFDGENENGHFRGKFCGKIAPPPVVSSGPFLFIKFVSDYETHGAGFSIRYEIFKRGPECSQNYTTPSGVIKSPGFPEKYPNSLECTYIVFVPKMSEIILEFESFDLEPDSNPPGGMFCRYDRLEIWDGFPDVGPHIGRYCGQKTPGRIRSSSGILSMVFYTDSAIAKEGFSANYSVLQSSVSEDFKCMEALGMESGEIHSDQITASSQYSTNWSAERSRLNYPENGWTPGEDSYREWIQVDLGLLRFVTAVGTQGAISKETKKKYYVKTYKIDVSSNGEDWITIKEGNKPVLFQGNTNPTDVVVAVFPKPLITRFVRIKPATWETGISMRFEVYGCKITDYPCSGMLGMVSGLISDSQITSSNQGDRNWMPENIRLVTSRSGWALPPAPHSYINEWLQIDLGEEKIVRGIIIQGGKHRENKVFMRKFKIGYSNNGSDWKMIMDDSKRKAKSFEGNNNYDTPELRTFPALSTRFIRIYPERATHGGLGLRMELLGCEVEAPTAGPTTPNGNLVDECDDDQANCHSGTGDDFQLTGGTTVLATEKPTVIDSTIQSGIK
Method: Purified recombinant NRP1-Fc (Sino Biologics) was added as indicated (−NRP1 or +NRP1) to 24 h conditioned media from vector transfected 293/KDR cells(left lanes), 293/KDR/VEGF 3S transfectants (middle lanes), or 293/KDR/VEGF WT transfectants (right lanes) in the absence (−) or presence (+) of the crosslinking reagent BS3 (Thermo Fisher Pierce). Samples were resolved by SDS-PAGE under reducing conditions, transferred to PVDF and immunodetected with anti-Fc antibody (top panel; Thermo Fisher Pierce) or anti-VEGF (lower panels; R&D Systems). A 160 kDa band, consistent with a 1:1 complex of NRP1-Fc and VEGF dimer, was detected by both antibodies specifically in the presence of NRP1-Fc in media from 293/KDR/VEGF 3S transfectants and 293/KDR/VEGF WT transfectants but not the vector control. […] Dimeric VEGF (44 kDa) is captured from both 293/KDR/VEGF 3S media and 293/KDR/VEGF WT media only in the presence of BS3 in the reducing SDS-PAGE conditions used.

[8] = target: T1, KDR; experiment: Antagonism of VEGF165 WT-stimulated KDR autophosphorylation in 293/KDR cells; format: cell-based; conditions: VEGF165 10 ng/ml, serum-deprived 293/KDR cells; mock-immunodepleted conditioned media containing 2.5-fold molar excess VEGF 3S protein; FIG. 5B
Method: FIG. 5B. […] The x-axis indicates the concentration of VEGF165 3S protein (ng/ml) in the conditioned media prior to immunodepletion.
as §2, with “Cleared extracts were applied to assay plates and processing per the manufacturer's instructions.” left out
Since the conditioned media could contain other inhibitors of KDR activation, VEGF165 3S was selectively removed from the media by immunodepletion with anti-VEGF antibody. A mock-immunodepletion was performed in parallel using a non-specific antibody and the VEGF165 3S content of the anti-VEGF and mock-immunodepleted media was measured (FIG. 5A). […]

[9] = test system: Akt activation in EA.hy 926 cells, which express VEGFR1 and R2; experiment: VEGF- or PlGF-induced Akt activation (phospho-Akt/total Akt) in EA.hy 926 cells; format: cell-based; conditions: FIG. 9A
Method: VEGF 3s blocked Akt activation by VEGF-A (dark circles) or P1GF (squares).
as §3, §4

Molecule | tumor formation by implanted transfectants [1] | heparin-promoted clustering (oligomerization) [2] | soft agar colony formation by transfectants [3] | soft agar colony formation by transfectants ([3]; listed as WT VEGF165) | cell proliferation rate in culture [4] | tumor formation by implanted transfectants ([1]; listed as 3S VEGF) | tumor formation by implanted transfectants ([1]; listed as VEGF 3S) | antagonism of Akt activation by VEGF-A ([5]; VEGF-A at 100 pM) | block of Akt activation induced by VEGF-D ([5]; VEGF-D at 1000 pM) | basal KDR phosphorylation level compared with empty vector transfectants [6] | inhibition of soft agar colony formation of 293/KDR cells stably transfected with VEGF165 WT [3] | inhibition of soft agar colony formation of 293/KDR cells stably transfected with VEGF165 WT ([3]; listed as 3S VEGF) | binding to NRP1 in vitro [7] | inhibition of KDR autophosphorylation stimulated by purified VEGF165 protein [8] [%] | inhibition of PlGF-induced Akt activation (phospho-Akt/total Akt) [9] | inhibition of VEGF-A-induced Akt activation (phospho-Akt/total Akt) [9] | inhibition of PlGF-induced Akt activation (phospho-Akt/total Akt) ([9]; listed as VEGF 3s)
VEGF165 WT: native mature human vascular endothelial growth factor A isoform of 165 amino acids | formed tumors fastest | promoted clustering | grew robustly | robust anchorage independent growth | grew significantly faster | – | – | – | – | – | – | – | – | – | – | – | –
VEGF165 3S: human VEGF165 with opposite charge substitutions R123E/R124E/R159E in the mature protein (protein, listed as Homo sapiens) APMAEGGGQNHHEVVKFMDVYQRSYCHPIETLVDIFQEYPDEIEYIFKPSCVPLMRCGGCCNDEGLECVPTEESNITMQIMRIKPHQGQHIGEMSFLQHNKCECRPKKDRARQENPCGPCSEEEKHLFVQDPQTCKCSCKNTDSRCKARQLELNERTCECDKPRR | – | – | grew modestly, if at all | – | – | tumors grew most slowly | did not form tumors prior to study termination | antagonism | did not block | indistinguishable | significant, dose-dependent inhibition | substantial and dose-dependent inhibition | bound similarly | > 80 | potency similar to pazopanib | blocked | blocked
